Laboratory results from US20030073629A1, “Omi and domains thereof that disrupt IAP-caspase interaction” (priority 2001, published 2003).
Each block holds one molecule with its values, some of them ahead of it.

Assays:
[1] = test system: MCF-7 cells; experiment: Apoptosis of MCF-7 cells transfected with cytosolic Omi-GFP fusion proteins; assay type: cell-based; details: 36 hours following transfection
Description: (§1) FIG. 20 provides schematic diagrams of the Omi-GFP and GFP-IETD-Omi constructs used to assay the ability of Omi to induce apoptosis or to enhance apoptosis by other stimuli.
FIG. 21 is a bar graphic representation of the percentages of GFP-positive apoptotic MCF-7 cells 36 hours following transfection with M-Omi-S/A-GFP or pEGFP-N1 alone or M-Omi-GFP together with empty vector or expression construct encoding XIAP, XIAP-BIR3, or caspase-9DN. The cells were also transfected with M-Omi-GFP expression construct in the presence of zVAD-FMK (20 μM).

[2] = molecular target: T1, XIAP-BIR3 (Homo sapiens, UniProt P98170); experiment: GST-BIR3 precipitation of extracts of transfected 293T cells; assay type: binding; details: 24 hours after transfection
T1 construct: Omi associates directly with the BIR3 domain of XIAP
T1 sequence (P98170 238-358 limits assumed): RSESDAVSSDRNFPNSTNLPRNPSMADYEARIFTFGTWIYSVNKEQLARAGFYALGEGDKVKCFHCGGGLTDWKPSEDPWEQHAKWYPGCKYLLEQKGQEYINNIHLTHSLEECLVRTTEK
Description: FIG. 24 is a scanned image of an immunoblot with Flag-HRP antibody of 293T cells extracts precipitated with GST-BIR3 24 hours after transfection with the indicated expression constructs extracts.
(§2) Next, the contribution of the IAP binding activity of Omi to its proapoptotic activity was tested. The MTS of Omi was replaced with a GFP-IETD sequence and mutated at its active site Ser306 to Ala (FIG. 20, GFP-IETD-AVP). Of note, the presence of the IETD sequence between GFP and Omi-S/A allowed caspase-dependent cleavage at the IETD site after the Asp residue and release of mature Omi-S/A in the cytosol of the transfected 293 and MCF-7 cells (FIG. 23). […] Taken together, Omi not only can induce apoptosis through its serine protease activity but also via its ability to bind and neutralize IAPs.

[3] = molecular target: T2, GST-BIR3-E314S mutant (Homo sapiens, UniProt P98170, E314S); experiment: Interaction of purified recombinant proteins with GST-BIR3-E314S mutant; assay type: binding; details: purified C-terminal His6-tagged recombinant protein
T2 construct: Omi associates directly with the BIR3 domain of XIAP
T2 sequence (P98170 238-358 E314S limits assumed): as the sequence (P98170 238-358 limits assumed) above, with E77S counted along it
From the text: (§3) FIGS. 7A and 7B are scanned images of Coomassie stained gels representing SDS-PAGE analysis of purified C-terminal His6-tagged recombinant wild type mature Omi (WT), Omi-ΔAVPS, Omi-S306A, and mature Smac (7A) and recombinant Omi and Smac proteins with GST-BIR1, GST-BIR2, GST-BIR3, or GST-BIR3-E314S fusion proteins (7B).
To confirm that Omi associates directly with the BIR3 domain of XIAP but not with the Smac protein, Smac was depleted from the 293 extracts using a Smac monoclonal antibody. Specifically, 293 cellular extracts were either left untreated (undepleted lane of FIG. 4) or depleted with a Smac antibody (lane depleted of FIG. 4). The undepleted and depleted extracts were incubated with the GST-BIR3 protein and the bound proteins were eluted as above. The eluates were then analyzed by far-western blotting with ^35S-XIAP and by western blotting with the Smac antibody as described above (see FIG. 4, left and right panels, respectively). […] The last lane of each panel in FIG. 4 represents the 293 cellular extracts that were bound to the E314S mutant GST-BIR3 fusion protein. […] The asterisk in FIG. 4 indicates non-specific bands and the arrow indicates the IgG band. […]

[4] = molecular target: T3, endogenous XIAP (Homo sapiens, UniProt P98170); experiment: Co-immunoprecipitation with endogenous XIAP in transfected 293T cells; assay type: cell-based; details: 293T cells transfected with C-terminal Flag-tagged Omi precursors, XIAP western blot
T3 construct: endogenous in cells; host or cells: 293T cells
T3 sequence (P98170 whole entry): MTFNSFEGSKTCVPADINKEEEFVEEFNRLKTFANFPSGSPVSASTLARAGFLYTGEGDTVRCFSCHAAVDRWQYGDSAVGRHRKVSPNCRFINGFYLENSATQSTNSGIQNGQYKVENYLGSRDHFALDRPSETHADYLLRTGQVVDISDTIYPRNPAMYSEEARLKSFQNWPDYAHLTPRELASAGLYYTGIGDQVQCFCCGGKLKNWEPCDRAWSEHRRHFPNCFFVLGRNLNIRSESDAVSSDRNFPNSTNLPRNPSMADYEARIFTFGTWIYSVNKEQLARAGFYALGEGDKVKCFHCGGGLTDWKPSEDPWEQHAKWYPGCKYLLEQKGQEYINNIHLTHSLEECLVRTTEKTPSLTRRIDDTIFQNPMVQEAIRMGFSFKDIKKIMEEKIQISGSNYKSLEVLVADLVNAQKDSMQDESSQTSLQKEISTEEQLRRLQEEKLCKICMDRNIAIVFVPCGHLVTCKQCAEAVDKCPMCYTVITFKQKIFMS
From the text: FIG. 9 is a scanned image of a blot representing western blot analysis using an XIAP monoclonal antibody (upper panel) or Flag antibody (middle panel) of 293T cells transfected with constructs encoding C-terminal Flag-tagged Omi wild type or mutant precursors and immunoprecipitated with Flag antibody. The lower panel is a scanned image of a blot representing total extracts probed with the XIAP antibody. Arrows indicate IgG bands.

[5] = test system: GST-BIR1, 2 fusion protein; experiment: Interaction of purified recombinant proteins with GST-BIR1, 2 fusion protein; assay type: binding, human; details: purified C-terminal His6-tagged recombinant protein
GST-BIR1, 2 fusion protein, sequence (P98170 124-240 limits assumed): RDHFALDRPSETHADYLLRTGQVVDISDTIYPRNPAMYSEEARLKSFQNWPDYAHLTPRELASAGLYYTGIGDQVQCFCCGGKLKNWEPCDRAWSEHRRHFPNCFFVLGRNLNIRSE
From the text: as §3
(§4) To determine whether a recombinant Omi lacking the first 133 residues (mature Omi) can interact with the GST-BIR3 fusion protein, this protein was expressed with a C-terminal His6 tag in bacteria and purified to apparent homogeneity (see FIG. 7B). […] FIGS. 7A and 7B show scanned images of Coomassie stained gels representing SDS-PAGE analysis of purified C-terminal His6-tagged recombinant wild type mature Omi (WT), Omi-ΔAVPS, Omi-S306A, and mature Smac (FIG. 7A) and recombinant Omi and Smac proteins with GST-BIR1, 2, GST-BIR3 or GST-BIR3-E314S fusion proteins (FIG. 7B).

[6] = molecular target: T4, cIAP1 (Homo sapiens, UniProt Q13490); experiment: In vitro interaction of immobilized His6-tagged protein with 35S-labeled cIAP1; assay type: binding; details: immobilized on Talon-affinity resin; in vitro-translated 35S-labeled cIAP1
T4 construct: made in house; host or cells: in vitro translation (cell-free)
T4 sequence (Q13490 whole entry, species assumed): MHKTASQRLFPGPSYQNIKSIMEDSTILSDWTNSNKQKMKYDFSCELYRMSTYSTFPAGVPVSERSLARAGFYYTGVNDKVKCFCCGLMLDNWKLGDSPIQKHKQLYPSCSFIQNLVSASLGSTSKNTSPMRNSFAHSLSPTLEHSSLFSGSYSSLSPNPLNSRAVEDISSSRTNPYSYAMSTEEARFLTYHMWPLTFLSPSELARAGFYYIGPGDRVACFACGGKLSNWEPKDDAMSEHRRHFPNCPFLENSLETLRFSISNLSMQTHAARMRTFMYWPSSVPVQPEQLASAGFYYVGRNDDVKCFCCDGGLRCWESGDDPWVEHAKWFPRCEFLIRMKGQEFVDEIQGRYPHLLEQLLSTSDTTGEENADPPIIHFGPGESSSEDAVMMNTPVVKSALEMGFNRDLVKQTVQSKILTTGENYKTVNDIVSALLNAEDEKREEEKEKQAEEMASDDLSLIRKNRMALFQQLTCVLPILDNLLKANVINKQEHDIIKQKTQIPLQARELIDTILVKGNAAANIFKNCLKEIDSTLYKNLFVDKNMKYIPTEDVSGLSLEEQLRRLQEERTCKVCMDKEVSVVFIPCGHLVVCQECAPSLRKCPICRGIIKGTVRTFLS
Description: (§5) FIG. 8 is a scanned image of an autoradiogram representing SDS-PAGE analysis of interaction of XIAP, cIAP1, and cIAP2 with mature Omi and Smac. Immobilized C-terminal His6-tagged mature Omi or Smac, or GST protein was incubated with in vitro-translated ^35S-labeled XIAP (first panel), cIAP1 (second panel), or cIAP2 (third panel). The fourth panel is a scanned image of a Coomassie stained gel of the immobilized proteins.
(§6) C-terminal His6-tagged mature Omi or Smac, or a GST protein were immobilized onto Talon-affinity resin. The bound resins were incubated with in vitro-translated ^35S-labeled XIAP (first panel), cIAP1 (second panel) or cIAP2 (third panel), washed extensively, and then analyzed by SDS polyacrylamide gel electrophoresis and autoradiography. GST was used as a negative control (second lane of each panel). The fourth panel, represents a scanned image of a Coomassie stained gel of the immobilized proteins. […] The in vitro assays were performed as described in Srinivasula, S. M. et al., J Biol Chem 275:36152-36157, 2000.

[7] = molecular target: T5, cIAP2 (Homo sapiens, UniProt Q13489); experiment: In vitro interaction of immobilized His6-tagged protein with 35S-labeled cIAP2; assay type: binding; details: immobilized on Talon-affinity resin; in vitro-translated 35S-labeled cIAP2
T5 construct: made in house; host or cells: in vitro translation (cell-free)
T5 sequence (Q13489 whole entry, species assumed): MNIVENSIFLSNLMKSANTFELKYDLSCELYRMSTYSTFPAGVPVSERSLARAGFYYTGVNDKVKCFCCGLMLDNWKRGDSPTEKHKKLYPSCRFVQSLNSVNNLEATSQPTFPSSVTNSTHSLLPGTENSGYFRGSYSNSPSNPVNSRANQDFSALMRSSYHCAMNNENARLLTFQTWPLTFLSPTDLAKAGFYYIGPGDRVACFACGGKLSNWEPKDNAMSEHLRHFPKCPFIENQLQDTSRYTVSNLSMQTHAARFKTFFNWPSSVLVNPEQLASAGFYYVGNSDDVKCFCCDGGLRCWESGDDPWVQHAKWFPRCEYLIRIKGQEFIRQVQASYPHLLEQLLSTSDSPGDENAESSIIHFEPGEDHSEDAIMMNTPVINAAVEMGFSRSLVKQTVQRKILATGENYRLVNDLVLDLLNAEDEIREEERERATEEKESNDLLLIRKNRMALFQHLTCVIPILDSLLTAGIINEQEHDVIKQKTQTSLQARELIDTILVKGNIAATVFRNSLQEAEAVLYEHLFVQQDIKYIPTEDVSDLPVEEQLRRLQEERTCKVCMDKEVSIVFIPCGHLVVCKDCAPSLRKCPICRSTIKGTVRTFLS
Description: as §5, §6

[8] = molecular target: T6, caspase-9 interaction with XIAP (procaspase-3 activation) (Homo sapiens, UniProt P98170); experiment: Procaspase-3 activation in XIAP-containing S100 extracts stimulated with cytochrome c and dATP; assay type: biochemical; details: S100 extracts with purified XIAP, cytochrome c plus dATP; 10, 50 or 300 ng protein
T6 construct: caspase-9: endogenous in 293T/HEK293 S100 extract
T6 sequence (P98170 whole entry): as the sequence (P98170 whole entry) above
Description: FIG. 17 is a scanned image of an autoradiogram, representing SDS-PAGE analysis of ^35S-labeled procaspase-3 following stimulation of 293T S100 extracts (20μg) mixed with purified XIAP (50 ng) with cytochrome c (0.5 μg) plus dATP (1 mM), in the presence of increasing amounts (10, 50, or 300 ng, respectively) of purified mature WT Omi, Omi-ΔAVPS, Omi-S306A, or mature Smac in 10 μl reaction volume. In the fifth lane, S100 extracts were incubated with. 300 ng of WT Omi without XIAP.
Next, it was determined whether Omi, like Smac, promotes caspase-9 activity in HEK293 S100 extracts in the presence of XIAP. To measure the caspase-9 activity in these extracts, ^35S-labeled procaspase-3 was added to the S100 extracts and stimulated the extracts with cytochrome c and dATP. […] These observations indicate that Omi, like Smac, is able to disrupt the interaction of caspase-9 with XIAP in the S100 extracts to promote procaspase-3 activation.

[9] = molecular target: T7, GST-BIR3 fusion protein (BIR3 domain of human XIAP) (Homo sapiens, UniProt P98170); experiment: Interaction of purified recombinant proteins with GST-BIR3 fusion protein (SDS-PAGE, Coomassie); assay type: binding; details: purified C-terminal His6-tagged recombinant protein; wild type GST-BIR3
T7 construct: Omi associates directly with the BIR3 domain of XIAP
T7 sequence (P98170 238-358 limits assumed): as the sequence (P98170 238-358 limits assumed) above
From the text: as §3, §4

[10] = test system: MCF-7 cells; experiment: TRAIL-induced apoptosis of MCF-7 cells transfected with GFP-IETD-Omi constructs; assay type: cell-based; details: TRAIL for 16 hours, 24 hours following transfection; versus GFP transfected control cells
Description: as §1
FIG. 25 is a bar graphic representation of the percentages of the determined round apoptotic MCF-7 cells that were left untreated (−) or treated with TRAIL (+) for 16 hours 24 hours following transfection with the indicated expression constructs.
as §2

[11] = test system: MCF-7 cells; experiment: Immunofluorescence confocal microscopy of Omi in MCF-7 cells; assay type: cell-based; details: TRAIL 1 μg/ml; untreated cells mostly punctate and perinuclear

binding to XIAP-BIR3 (GST-BIR3) [2]: do not bind XIAP-BIR3
B1: M-Omi-S/A-GFP: inactive (S306A) Omi-GFP fusion protein without the MTS (protein)
chain: MAVPSPPPASPRSQYNFIADVVEKTAPAVVYIEILDRHPFLGREVPISNGSGFVVAADGLIVTNAHVVADRRRVRVRLLSGDTYEAVVTAVDPVADIATLRIQTKEPLPTLPLGRSADVRQGEFVVAMGSPFALQNTITSGIVSSAQRPARDLGLPQTNVEYIQTDAAIDFGNAGGPLVNLDGEVIGVNTMKVTAGISFAIPSDRLREFLHRGEKKNSSSGISGSQRRYIGVMMLTLSPSILAELQLREPSFPDVQHGVLIHKVILGSPAHRAGLRPGDVILAIGEQMVQNAEDVYEAVRTQSQLAVQIRRGRETLTLYVTPEVTE
modifications: left off: large carriers
induction of apoptosis in MCF-7 cells [1]: not the inactive M-Omi-S/A-GFP, was able to induce apoptosis

interaction with GST-BIR3-E314S mutant [3]: not with the GST-BIR3-E314S mutant
interaction with cIAP1 [6]: found to also interact with cIAP1
B2: mature Omi: Omi polypeptide comprising residues 134-458 of SEQ ID NO:1; recombinant with C-terminal His6 tag (protein, listed as Homo sapiens)
chain: AVPSPPPASPRSQYNFIADVVEKTAPAVVYIEILDRHPFLGREVPISNGSGFVVAADGLIVTNAHVVADRRRVRVRLLSGDTYEAVVTAVDPVADIATLRIQTKEPLPTLPLGRSADVRQGEFVVAMGSPFALQNTITSGIVSSAQRPARDLGLPQTNVEYIQTDAAIDFGNSGGPLVNLDGEVIGVNTMKVTAGISFAIPSDRLREFLHRGEKKNSSSGISGSQRRYIGVMMLTLSPSILAELQLREPSFPDVQHGVLIHKVILGSPAHRAGLRPGDVILAIGEQMVQNAEDVYEAVRTQSQLAVQIRRGRETLTLYVTPEVTE
modifications: C-terminal His6 tag
interaction with endogenous XIAP in vivo [4]: can also interact with endogenous XIAP in vivo
interaction with GST-BIR1, 2 fusion protein [5]: able to interact with the GST-BIR1, 2 fusion protein
interaction with cIAP2 [7]: found to also interact with cIAP1 and cIAP2
promotion of procaspase-3 activation [8]: able to promote procaspase-3 activation in the XIAP-containing S100 extracts almost to the same extent as Smac
interaction with GST-BIR3 fusion protein [9]: able to interact equally with the wild type GST-BIR3 protein

B3: GFP-IETD-AVP: Omi with MTS replaced by a GFP-IETD sequence and active site Ser306 mutated to Ala (protein)
chain: AVPSPPPASPRSQYNFIADVVEKTAPAVVYIEILDRHPFLGREVPISNGSGFVVAADGLIVTNAHVVADRRRVRVRLLSGDTYEAVVTAVDPVADIATLRIQTKEPLPTLPLGRSADVRQGEFVVAMGSPFALQNTITSGIVSSAQRPARDLGLPQTNVEYIQTDAAIDFGNAGGPLVNLDGEVIGVNTMKVTAGISFAIPSDRLREFLHRGEKKNSSSGISGSQRRYIGVMMLTLSPSILAELQLREPSFPDVQHGVLIHKVILGSPAHRAGLRPGDVILAIGEQMVQNAEDVYEAVRTQSQLAVQIRRGRETLTLYVTPEVTE
enhancement of TRAIL-induced apoptosis [10]: enhanced TRAIL-induced apoptosis in these cells several folds above the GFP transfected control cells

B4: GFP-IETD-SSA: GFP-IETD-Omi-S/A with the AVPS motif mutated to SSAS motif (protein)
chain: SSASPPPASPRSQYNFIADVVEKTAPAVVYIEILDRHPFLGREVPISNGSGFVVAADGLIVTNAHVVADRRRVRVRLLSGDTYEAVVTAVDPVADIATLRIQTKEPLPTLPLGRSADVRQGEFVVAMGSPFALQNTITSGIVSSAQRPARDLGLPQTNVEYIQTDAAIDFGNAGGPLVNLDGEVIGVNTMKVTAGISFAIPSDRLREFLHRGEKKNSSSGISGSQRRYIGVMMLTLSPSILAELQLREPSFPDVQHGVLIHKVILGSPAHRAGLRPGDVILAIGEQMVQNAEDVYEAVRTQSQLAVQIRRGRETLTLYVTPEVTE
enhancement of TRAIL-induced apoptosis [10]: abolished the apoptotic enhancement activity
binding to XIAP-BIR3 (GST-BIR3) [2]: abolished the apoptotic enhancement activity of Omi-S/A and the ability to bind to BIR3

B5: TRAIL: apoptotic stimulus acting by TRAIL-receptor ligation (protein, UniProt P50591 1-281, looked up)
Tumor necrosis factor ligand …: MAMMEVQGGPSLGQTCVLIVIFTVLLQSLCVAVTYVYFTNELKQMQDKYSKSGIACFLKEDDSYWDPNDEESMNSPCWQVKWQLRQLVRKMILRTSEETISTVQEKQQNISPLVRERGPQRVAAHITGTRGRSNTLSSPNSKNEKALGRKINSWESSRSGHSFLSNLHLRNGELVIHEKGFYYIYSQTYFRFQEEIKENTKNDKQMVQYIYKYTSYPDPILLMKSARNSCWSKDAEYGLYSIYQGGIFELKENDRIFVSVTNEHLIDMDHEASFFGAFLVG
immunofluorescence staining pattern of Omi [11]: showed diffused immunofluorescence staining of Omi
